Assay [1] concerns the target EGFR (wild-type, His-tagged or biotinylated) (human, UniProt P00533). Briefly: BLI.
Assay [2] has as its target EGFRvIII (human, UniProt P00533). In words: BLI.

B1: SI-95X58 (antibody)
chain 1: not shown
chain 2: EIVLTQSPSTLSVSPGERATFSCRASQSIGTNIHWYQQKPGKPPRLLIKYASESISGIPDRFSGSGSGTEFTLTISSVQSEDFAVYYCQQNNNWPTTFGPGTKLTVLRTVAAPSVFIFPPSDEQLKSGTASVVCLLNNFYPREAKVQWKVDNALQSGNSQESVTEQDSKDSTYSLSSTLTLSKADYEKHKVYACEVTHQGLSSPVTKSFNRGECGGGGSGGGGGSGGGGSGGGGSQVQLQESGPSLVKPSQTLSLTCTVSGYSITSDFAWNWIRQFPGRKLEWMGYISYSGNTRYNPSLKSRFTISRDTSKNQFYLKLRSVTIADTAVYYCVTAGRGFPYWGQGTLVTVSSGGGGSGGGGSGGGGSDIVMTQSPSSVSLSLGDRVTITCHSSQDINSNIGWLQQKPGKAFKGLIYHGTNLDDGVPSRFSGSGSGADYTLTISSLQAEDFATYYCVQYAQFPWTFGPGTKLEIK
For the molecule B1, the Kd in assay [1] is 16 nM; in assay [2], 0.807 nM.

B2: SI-95X59 (antibody)
chain 1: not shown
chain 2: EIVLTQSPSTLSVSPGERATFSCRASQSIGTNIHWYQQKPGKPPRLLIKYASESISGIPDRFSGSGSGTEFTLTISSVQSEDFAVYYCQQNNNWPTTFGPGTKLTVLRTVAAPSVFIFPPSDEQLKSGTASVVCLLNNFYPREAKVQWKVDNALQSGNSQESVTEQDSKDSTYSLSSTLTLSKADYEKHKVYACEVTHQGLSSPVTKSFNRGECGGGGSGGGGGSGGGGSGGGGSQVQLQESGPSLVKPSQTLSLTCTVSGYSITSDFAWNWIRQFPGRKLEWMGYISYSGNTRYNPSLKSRFTISRDTSKNQFYLKLRSVTIADTAVYYCVTAGRGFPYWGQGTLVTVSSGGGGSGGGGSGGGGSDIVMTQSPSSVSLSLGDRVTITCHSSQDINSNIGWLQQKPGKAFKGLIYHGTNLDDGVPSRFSGSGSGADYTLTISSLQAEDFATYYCVQYAQFPWTFGPGTKLEIK
On to B2, for which the results for the Kd in assay [1] and in assay [2] were 23.6 nM and 1.03 nM, respectively.

B3: SI-95X57 (antibody)
chain 1: not shown
chain 2: EIVLTQSPSTLSVSPGERATFSCRASQSIGTNIHWYQQKPGKPPRLLIKYASESISGIPDRFSGSGSGTEFTLTISSVQSEDFAVYYCQQNNNWPTTFGPGTKLTVLRTVAAPSVFIFPPSDEQLKSGTASVVCLLNNFYPREAKVQWKVDNALQSGNSQESVTEQDSKDSTYSLSSTLTLSKADYEKHKVYACEVTHQGLSSPVTKSFNRGECGGGGSGGGGGSGGGGSGGGGSQVQLQESGPSLVKPSQTLSLTCTVSGYSITSDFAWNWIRQFPGRKLEWMGYISYSGNTRYNPSLKSRFTISRDTSKNQFYLKLRSVTIADTAVYYCVTAGRGFPYWGQGTLVTVSSGGGGSGGGGSGGGGSDIVMTQSPSSVSLSLGDRVTITCHSSQDINSNIGWLQQKPGKAFKGLIYHGTNLDDGVPSRFSGSGSGADYTLTISSLQAEDFATYYCVQYAQFPWTFGPGTKLEIK
In the case of B3, the Kd in assay [1] was determined as 0.768 nM; in assay [2], 0.549 nM.

B4: SI-95X60 (antibody)
chain 1: not shown
chain 2: EIVLTQSPSTLSVSPGERATFSCRASQSIGTNIHWYQQKPGKPPRLLIKYASESISGIPDRFSGSGSGTEFTLTISSVQSEDFAVYYCQQNNNWPTTFGPGTKLTVLRTVAAPSVFIFPPSDEQLKSGTASVVCLLNNFYPREAKVQWKVDNALQSGNSQESVTEQDSKDSTYSLSSTLTLSKADYEKHKVYACEVTHQGLSSPVTKSFNRGECGGGGSGGGGGSGGGGSGGGGSQVQLQESGPSLVKPSQTLSLTCTVSGYSITSDFAWNWIRQFPGRKLEWMGYISYSGNTRYNPSLKSRFTISRDTSKNQFYLKLRSVTIADTAVYYCVTAGRGFPYWGQGTLVTVSSGGGGSGGGGSGGGGSDIVMTQSPSSVSLSLGDRVTITCHSSQDINSNIGWLQQKPGKAFKGLIYHGTNLDDGVPSRFSGSGSGADYTLTISSLQAEDFATYYCVQYAQFPWTFGPGTKLEIK
Consider B4, for which the figures for the Kd in assay [1] and in assay [2] were 4.98 nM and 1.95 nM, respectively.

B5: SI-95X56 (antibody)
chain 1: not shown
chain 2: DIVMTQSPSSVSLSLGDRVTITCHSSQDINSNIGWLQQKPGKAFKGLIYHGTNLDDGVPSRFSGSGSGADYTLTISSLQAEDFATYYCVQYAQFPWTFGPGTKLEIKRTVAAPSVFIFPPSDEQLKSGTASVVCLLNNFYPREAKVQWKVDNALQSGNSQESVTEQDSKDSTYSLSSTLTLSKADYEKHKVYACEVTHQGLSSPVTKSFNRGEC
In the case of B5, the results for the Kd in assay [1] and in assay [2] were 6.88 nM and 1.93 nM, respectively.

B6: SI-95X52 (antibody)
chain 1: not shown
chain 2: DIVMTQSPSSVSLSLGDRVTITCHSSQDINSNIGWLQQKPGKAFKGLIYHGTNLDDGVPSRFSGSGSGADYTLTISSLQAEDFATYYCVQYAQFPWTFGPGTKLEIKRTVAAPSVFIFPPSDEQLKSGTASVVCLLNNFYPREAKVQWKVDNALQSGNSQESVTEQDSKDSTYSLSSTLTLSKADYEKHKVYACEVTHQGLSSPVTKSFNRGEC
For the molecule B6, the equilibrium dissociation constant (Kd) in assay [1] was 19.3 nM; in assay [2] it was 1.47 nM.

B7: SI-95X54 (antibody)
chain 1: not shown
chain 2: DIVMTQSPSSVSLSLGDRVTITCHSSQDINSNIGWLQQKPGKAFKGLIYHGTNLDDGVPSRFSGSGSGADYTLTISSLQAEDFATYYCVQYAQFPWTFGPGTKLEIKRTVAAPSVFIFPPSDEQLKSGTASVVCLLNNFYPREAKVQWKVDNALQSGNSQESVTEQDSKDSTYSLSSTLTLSKADYEKHKVYACEVTHQGLSSPVTKSFNRGEC
Consider B7, for which the dissociation constant (Kd) in assay [1] turned out to be 25.7 nM; in assay [2] it was 1.37 nM.

B8: SI-95X40 (antibody)
chain 1: not shown
chain 2: DIQMTQSPSSLSASVGDRVTITCRSSQNIVHSNGNTYLDWYQQTPGKAPKLLIYKVSNRFSGVPSRFSGSGSGTDFTFTISSLQPEDIATYYCFQYSHVPWTFGQGTKLQITRTVAAPSVFIFPPSDEQLKSGTASVVCLLNNFYPREAKVQWKVDNALQSGNSQESVTEQDSKDSTYSLSSTLTLSKADYEKHKVYACEVTHQGLSSPVTKSFNRGEC
With B8, the Kd worked out at 0.954 nM in assay [1] and 1.16 nM in assay [2].

B9: SI-95X45 (antibody)
chain 1: not shown
chain 2: EIVLTQSPSTLSVSPGERATFSCRASQSIGTNIHWYQQKPGKPPRLLIKYASESISGIPDRFSGSGSGTEFTLTISSVQSEDFAVYYCQQNNNWPTTFGPGTKLTVLRTVAAPSVFIFPPSDEQLKSGTASVVCLLNNFYPREAKVQWKVDNALQSGNSQESVTEQDSKDSTYSLSSTLTLSKADYEKHKVYACEVTHQGLSSPVTKSFNRGEC
Consider B9, for which the figures for the dissociation constant (Kd) in assay [1] and in assay [2] were 4.61 nM and 1.11 nM, respectively.

B10: SI-95X50 (antibody)
chain 1: not shown
chain 2: EIVLTQSPSTLSVSPGERATFSCRASQSIGTNIHWYQQKPGKPPRLLIKYASESISGIPDRFSGSGSGTEFTLTISSVQSEDFAVYYCQQNNNWPTTFGPGTKLTVLRTVAAPSVFIFPPSDEQLKSGTASVVCLLNNFYPREAKVQWKVDNALQSGNSQESVTEQDSKDSTYSLSSTLTLSKADYEKHKVYACEVTHQGLSSPVTKSFNRGEC
As for B10, the figures for the dissociation constant (Kd) in assay [1] and in assay [2] were 1.38 nM and 0.207 nM, respectively.

B11: SI-95X47 (antibody)
chain 1: not shown
chain 2: EIVLTQSPSTLSVSPGERATFSCRASQSIGTNIHWYQQKPGKPPRLLIKYASESISGIPDRFSGSGSGTEFTLTISSVQSEDFAVYYCQQNNNWPTTFGPGTKLTVLRTVAAPSVFIFPPSDEQLKSGTASVVCLLNNFYPREAKVQWKVDNALQSGNSQESVTEQDSKDSTYSLSSTLTLSKADYEKHKVYACEVTHQGLSSPVTKSFNRGEC
As for B11, the Kd is 20.6 nM in assay [1] and 0.272 nM in assay [2].
